This note sets out measurements from the RNAGym collection of RNA variant scans (doi:10.7554/elife.80360).

Sequences and labels used below:
B1: CPEB3 Ribozyme (parent)
chain: GGGGGCCACAGCAGAAGCGUUCACGUCGCGGCCCCUGUCAGAUUCUGGUGAAUCUGCGAAUUCUGCUGU

Variants of B1 are the subject of this data set. Kind of data set: self-cleavage, relative activity (ratio to wild type); higher = more cleavage; co-transcriptional.
As to C57G U61G, the self-cleavage turned out to be 0.439. Consider C57G U61A, for which the self-cleavage turned out to be 0.399. As to C57G U61C, the self-cleavage was determined as 0.377. For the variant A59U U62A, the self-cleavage is 0.536.

For A59U U62G, the self-cleavage was determined as 0.394.

On to A59U U62C, for which the self-cleavage worked out at 0.546. The value for G56C U69A was 0.874; that for G56C U69C was 1.02. As for G56C U69G, the self-cleavage came out at 0.925. The value for A59U U67C was 0.867; that for A59U U67A was 0.805. On to C57A G68U, for which the self-cleavage stood at 0.394. To C57A G68A belongs 0.367.

A59G C63A: the self-cleavage turned out to be 0.857. In the case of A59G C63G, the self-cleavage was found to be 0.691. To C57A G58U belongs 0.367; to C57A G58A, 0.313; to G58U G68A, 0.993.

Take G58U G68U: the self-cleavage is 0.966. Consider G58U G68C, for which the self-cleavage was 1.03. In the case of A59U G68C, the self-cleavage stood at 0.941. Take G58A U62C: the self-cleavage amounted to 0.872. Take A60C G65C: the self-cleavage was 0.449. Regarding A59G U64C, the self-cleavage came out at 0.873. On to A59G U64A, for which the self-cleavage is 0.861.

As for A59C C63A, the self-cleavage amounted to 0.43. The value for G58U A59U was 0.749; that for G58U A59C was 0.8; that for A59G G65U was 0.694. For the variant A59G G65C, the self-cleavage came to 0.512. For U55G C63G, the self-cleavage turned out to be 0.399. The value for G56A was 0.977; that for G56U was 0.968. Consider G56C, for which the self-cleavage was 0.871. Consider A59U C66U, for which the self-cleavage is 0.775. To C57A U67G belongs 0.445; to G56C U62A, 0.355.

As for G56C U62C, the self-cleavage came to 0.524. To G58A G68A belongs 0.944; to U55G U69A, 0.953. With U55G U69G, the self-cleavage was 1.

Regarding G58C A59C, the self-cleavage stood at 0.636. The value for G58C A59G was 0.982. To G58C A59U belongs 0.701; to G56U U64C, 0.762; to G58U U64A, 0.956. To G58U U64G belongs 0.971; to G58U U64C, 0.959; to G58U U67G, 1.02. As for G58U U67A, the self-cleavage is 0.982. For G58U U67C, the self-cleavage was found to be 1.01. As for G58U U61G, the self-cleavage came out at 0.908.

Regarding G58U U61C, the self-cleavage was 0.892. In the case of G56A U62A, the self-cleavage is 0.811. The value for G56A U62C was 0.732; that for G56A U62G was 0.775. The value for G58A U64A was 0.92. To G58A U64C belongs 0.861; to G56U G68U, 0.985. With A60G U69G, the self-cleavage was 1.01.

For G56A G68A, the self-cleavage is 0.995. The value for C57G A59U was 0.388; that for C57G A59G was 0.375. In the case of C57G C63A, the self-cleavage was determined as 0.291. To C57U U64G belongs 0.365. The value for C57A U64C was 0.401; that for C57A U64A was 0.357; that for U55G U62A was 0.427. On to U55G U62C, for which the self-cleavage came to 0.517. To A59U U61G belongs 0.512; to A59U U61C, 0.358; to A59U U61A, 0.443. Regarding A59C G68A, the self-cleavage amounted to 0.908. Turning to A59C G68U, the self-cleavage was determined as 0.939. To G58C G65U belongs 0.842; to G58C G65A, 0.844; to A60C U69C, 0.627. For the variant G56U G58U, the self-cleavage was 0.978. G56U G58C: the self-cleavage stood at 0.989. Regarding G56U G58A, the self-cleavage came out at 0.924. The value for C57G G68A was 0.374; that for C57G G68C was 0.388; that for G56U G65C was 0.506.

For C57A U62C, the self-cleavage amounted to 0.339. For C57A U62G, the self-cleavage came to 0.409. To G58C A60C belongs 0.359; to G58C A60G, 0.683; to G56C G68U, 0.971. The value for G56C G68A was 0.918; that for G58U G65C was 0.863. The value for G56A U69G was 1.03; that for G56A U69C was 1.04; that for A59C A60G was 0.535. In the case of A59C A60C, the self-cleavage was found to be 0.38. On to G58C C66A, for which the self-cleavage is 0.818. To G58C C66G belongs 0.884; to C57U A59G, 0.354; to C57U A59U, 0.256. To A59G U61C belongs 0.785; to C57A C63G, 0.404; to C57A C63A, 0.351.

C57A C63U: the self-cleavage is 0.408. To G56C U61G belongs 0.483. As to G56C U61C, the self-cleavage was determined as 0.434.

Take G56C U61A: the self-cleavage was found to be 0.554. Regarding G58U C63G, the self-cleavage is 1.01.

With G58U C63U, the self-cleavage is 1.03. G58A A60U: the self-cleavage worked out at 0.919. Consider G58A A60G, for which the self-cleavage is 0.83. The value for G58A A60C was 0.495; that for A59C G65C was 0.374. Take C57G C66A: the self-cleavage was determined as 0.308. To G56C C66G belongs 0.517; to G56C C66A, 0.39; to G56C C66U, 0.748.

Regarding C57G U67A, the self-cleavage came to 0.325. Consider C57G U67G, for which the self-cleavage stood at 0.489. Consider C57G U67C, for which the self-cleavage is 0.428. Turning to A59G U62G, the self-cleavage was 0.944.

In the case of A59G U62C, the self-cleavage is 0.717.

G56A A60G: the self-cleavage worked out at 0.856. To G56A A60U belongs 0.326. The value for G56A A60C was 0.382; that for A59U U69C was 1.02; that for A59U G65A was 0.531.

For A59U G65U, the self-cleavage amounted to 0.329. To A59U G65C belongs 0.497; to G58U U69G, 1.03.

G56C A60G: the self-cleavage is 0.608. The value for G56C A60U was 0.795; that for G58A U61C was 0.82. Consider G58A U61A, for which the self-cleavage is 0.827. G58A U61G: the self-cleavage is 0.861.

A59G U69A: the self-cleavage is 1.04. On to A59G U69G, for which the self-cleavage stood at 1.07. A59C U64A: the self-cleavage is 0.471.

A59C U64G: the self-cleavage turned out to be 0.633. A60G G68U: the self-cleavage stood at 0.954. To A60G U62C belongs 0.436. Consider A60G U62G, for which the self-cleavage amounted to 0.687. Regarding A59C U62C, the self-cleavage came to 0.407. Take A59C U62G: the self-cleavage came to 0.423. The value for C57G G58A was 0.377; that for C57G G58U was 0.463. The value for C57G G58C was 0.356; that for G56U U69A was 1; that for G56U U69C was 1.04. For C57U U69A, the self-cleavage is 0.478.

With C57U U69G, the self-cleavage amounted to 0.473. For the variant G58A U69G, the self-cleavage was 1.02.

Consider G58A U69A, for which the self-cleavage is 0.99. As for U55G U64A, the self-cleavage came out at 0.371. The value for U55G U64C was 0.411; that for G58A C63U was 0.957; that for G58A C63G was 0.757. In the case of A59C U67C, the self-cleavage amounted to 0.806.

Take A59C U67A: the self-cleavage is 0.689. The value for G56U C66A was 0.447. To G58C U64A belongs 0.955; to G58C U64C, 0.777; to A60C C63G, 0.344. As to A60C C63U, the self-cleavage was 0.468. In the case of G56U A60G, the self-cleavage came out at 0.712. In the case of G56U A60U, the self-cleavage was 0.293. As to C57U U62C, the self-cleavage came out at 0.41.

C57U U62A: the self-cleavage turned out to be 0.363. Consider C57A G65A, for which the self-cleavage worked out at 0.346.
